In publication PMC6748592 one finds Kd data, which are given here for one molecule.

The target of this experiment is CD52 peptide mimotope (…) (human). In words: SPR. Background: SPR reads the build-up and loss of mass on a sensor chip optically.

B1: MAB1 light chain N33D mutant (antibody, V domains shown)
VH: EVQLVESGGGLVQPGGSLRLSCAASGFPFSNYWMNWVRQAPGKGLEWVGQIRLKSNNYATHYAESVKGRFTISRDDSKNSLYLQMNSLKTEDTAVYYCTPIDYWGQGTTVTVSS
VL: DIVMTQTPLSLSVTPGQPASISCKSSQSLLYSDGKTYLNWVLQKPGQSPQRLIYLVSKLDSGVPDRFSGSGSGTDFTLKISRVEAEDVGVYYCVQGSHFHTFGQGTKLEIK
Molecule B1 showed a Kd of 1.25 µM.

Broadly, the Kd is the equilibrium constant for the complex coming apart. A high value points to lower affinity.
